Reference: patent US20230279406A1
Blank lines part the entries; values can stand above or below the binder they belong to.

Key:
Assay in all cases: cell-based or functional assay
[1] = target: T1, CD400 PV1-GAI-L1-RfxCas13d-264C-NLS-BGHpA
T1 sequence: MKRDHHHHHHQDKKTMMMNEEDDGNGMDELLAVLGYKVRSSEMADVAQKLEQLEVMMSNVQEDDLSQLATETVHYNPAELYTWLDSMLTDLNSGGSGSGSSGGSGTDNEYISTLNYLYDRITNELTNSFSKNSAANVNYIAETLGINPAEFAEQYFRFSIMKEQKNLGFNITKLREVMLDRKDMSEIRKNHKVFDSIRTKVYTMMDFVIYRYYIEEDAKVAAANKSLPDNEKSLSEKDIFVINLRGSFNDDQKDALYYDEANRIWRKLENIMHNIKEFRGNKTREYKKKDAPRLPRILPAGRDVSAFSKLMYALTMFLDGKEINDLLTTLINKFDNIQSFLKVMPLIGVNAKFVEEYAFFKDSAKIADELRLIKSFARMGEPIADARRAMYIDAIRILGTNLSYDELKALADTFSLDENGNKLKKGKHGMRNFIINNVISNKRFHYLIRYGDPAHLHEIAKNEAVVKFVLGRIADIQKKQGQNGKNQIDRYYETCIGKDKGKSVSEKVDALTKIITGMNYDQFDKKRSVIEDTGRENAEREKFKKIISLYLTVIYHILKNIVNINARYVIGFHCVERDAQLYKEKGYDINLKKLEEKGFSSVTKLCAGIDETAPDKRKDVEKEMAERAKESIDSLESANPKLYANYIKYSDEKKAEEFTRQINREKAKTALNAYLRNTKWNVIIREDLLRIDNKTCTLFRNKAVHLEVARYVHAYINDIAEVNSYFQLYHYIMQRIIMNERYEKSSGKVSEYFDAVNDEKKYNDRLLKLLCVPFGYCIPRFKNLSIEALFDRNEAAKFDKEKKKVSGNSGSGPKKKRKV

[2] = target: T2, CD246 PV1-GAI-L1-RfxCas13d-566C-NLS-BGHpA
T2 sequence: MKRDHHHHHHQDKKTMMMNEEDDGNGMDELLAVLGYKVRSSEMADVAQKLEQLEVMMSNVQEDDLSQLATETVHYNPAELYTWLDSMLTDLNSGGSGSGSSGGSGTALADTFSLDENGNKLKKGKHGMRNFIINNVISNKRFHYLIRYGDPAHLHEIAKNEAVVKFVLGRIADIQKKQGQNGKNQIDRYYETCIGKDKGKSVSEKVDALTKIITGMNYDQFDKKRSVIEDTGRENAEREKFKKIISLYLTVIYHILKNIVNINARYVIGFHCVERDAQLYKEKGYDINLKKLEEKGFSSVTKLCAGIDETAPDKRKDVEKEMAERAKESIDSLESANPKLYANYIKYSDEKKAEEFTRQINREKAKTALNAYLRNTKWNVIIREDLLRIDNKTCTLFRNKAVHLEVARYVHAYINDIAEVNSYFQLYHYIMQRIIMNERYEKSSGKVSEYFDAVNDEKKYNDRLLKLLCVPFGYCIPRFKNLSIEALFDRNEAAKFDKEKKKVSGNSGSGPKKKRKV

[3] = target: T3, CD374 PV1-RfxCas13d-560C-NLS-BGHpA
T3 sequence: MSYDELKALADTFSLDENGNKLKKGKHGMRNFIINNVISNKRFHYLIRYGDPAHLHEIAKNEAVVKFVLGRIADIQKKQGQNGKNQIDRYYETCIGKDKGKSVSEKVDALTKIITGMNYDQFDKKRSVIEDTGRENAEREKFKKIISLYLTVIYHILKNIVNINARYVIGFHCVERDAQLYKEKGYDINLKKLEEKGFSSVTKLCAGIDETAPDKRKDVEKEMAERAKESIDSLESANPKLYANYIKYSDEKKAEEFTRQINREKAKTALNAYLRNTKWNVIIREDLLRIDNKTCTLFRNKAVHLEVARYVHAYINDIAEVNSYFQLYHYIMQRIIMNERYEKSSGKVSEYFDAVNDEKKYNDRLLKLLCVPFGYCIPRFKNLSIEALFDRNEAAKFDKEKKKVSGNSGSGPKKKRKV

[4] = target: CD92 PV1-CaffVHH-L1-iCre-271C-NLS-BGHpA
[5] = target: T4, CD244 PV1-GAI-L1-RfxCas13d-560C-NLS-BGHpA
T4 sequence: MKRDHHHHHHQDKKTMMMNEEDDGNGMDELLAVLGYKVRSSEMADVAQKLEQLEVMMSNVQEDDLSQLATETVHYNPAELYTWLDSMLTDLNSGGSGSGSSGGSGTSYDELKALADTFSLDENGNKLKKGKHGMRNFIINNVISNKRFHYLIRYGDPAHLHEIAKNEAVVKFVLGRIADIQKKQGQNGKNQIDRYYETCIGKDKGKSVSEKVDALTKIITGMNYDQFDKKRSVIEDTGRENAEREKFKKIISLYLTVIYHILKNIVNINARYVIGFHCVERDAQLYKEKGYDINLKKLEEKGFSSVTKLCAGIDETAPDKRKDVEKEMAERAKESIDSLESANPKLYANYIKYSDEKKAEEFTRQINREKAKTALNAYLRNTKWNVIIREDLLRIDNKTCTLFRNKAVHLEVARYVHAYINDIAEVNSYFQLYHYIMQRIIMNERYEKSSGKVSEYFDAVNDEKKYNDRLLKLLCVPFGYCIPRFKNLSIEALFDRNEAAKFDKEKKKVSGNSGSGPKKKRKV

Chain of CD92 PV1-CaffVHH-L1-iCre-271C-NLS-BGHpA (chain, as listed by the source): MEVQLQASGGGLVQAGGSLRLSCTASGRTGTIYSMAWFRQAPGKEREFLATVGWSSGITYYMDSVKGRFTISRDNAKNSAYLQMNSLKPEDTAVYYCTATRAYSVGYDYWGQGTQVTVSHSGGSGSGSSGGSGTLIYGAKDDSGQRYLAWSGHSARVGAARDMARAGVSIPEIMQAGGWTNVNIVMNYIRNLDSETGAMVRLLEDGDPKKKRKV

B1: CD399 PV1-RfxCas13d-N263-L1-GID-NLS-BGHpA (protein)
chain: MIEKKKSFAKGMGVKSTLVSGSKVYMTTFAEGSDARLEKIVEGDSIRSVNEGEAFSAEMADKNAGYKIGNAKFSHPKGYAVVANNPLYTGPVQQDMLGLKETLEKRYFGESADGNDNICIQVIHNILDIEKILAEYITNAAYAVNNISGLDKDIIGFGKFSTVYTYDEFKDPEHHRAAFNNNDKLINAIKAQYDEFDNFLDNPRLGYFGQAFFSKEGRNYIINYGNECYDILALLSGLRHWVVHNNEEESRISRTWLYNLDKNLSGGSGSGSSGGSGTMAASDEVNLIESRTVVPLNTWVLISNFKVAYNILRRPDGTFNRHLAEYLDRKVTANANPVDGVFSFDVLIDRRINLLSRVYRPAYADQEQPPSILDLEKPVDGDIVPVILFFHGGSFAHSSANSAIYDTLCRRLVGLCKCVVVSVNYRRAPENPYPCAYDDGWIALNWVNSRSWLKSKKDSKVHIFLAGDSSGGNIAHNVALRAGESGIDVLGNILLNPMFGGNERTESEKSLDGKYFVTVRDRDWYWKAFLPEGEDREHPACNPFSPRGKSLEGVSFPKSLVVVAGLDLIRDWQLAYAEGLKKAGQEVKLMHLEKATVGFYLLPNNNHFHNVMDEISAFVNAECPKKKRKV
mCherry knockdown efficiency with GIB CID domains [1]: > 60%

B2: CD245 PV1-RfxCas13d-N565-L1-GID-NLS-BGHpA (protein)
chain: MIEKKKSFAKGMGVKSTLVSGSKVYMTTFAEGSDARLEKIVEGDSIRSVNEGEAFSAEMADKNAGYKIGNAKFSHPKGYAVVANNPLYTGPVQQDMLGLKETLEKRYFGESADGNDNICIQVIHNILDIEKILAEYITNAAYAVNNISGLDKDIIGFGKFSTVYTYDEFKDPEHHRAAFNNNDKLINAIKAQYDEFDNFLDNPRLGYFGQAFFSKEGRNYIINYGNECYDILALLSGLRHWVVHNNEEESRISRTWLYNLDKNLDNEYISTLNYLYDRITNELTNSFSKNSAANVNYIAETLGINPAEFAEQYFRFSIMKEQKNLGFNITKLREVMLDRKDMSEIRKNHKVFDSIRTKVYTMMDFVIYRYYIEEDAKVAAANKSLPDNEKSLSEKDIFVINLRGSFNDDQKDALYYDEANRIWRKLENIMHNIKEFRGNKTREYKKKDAPRLPRILPAGRDVSAFSKLMYALTMFLDGKEINDLLTTLINKFDNIQSFLKVMPLIGVNAKFVEEYAFFKDSAKIADELRLIKSFARMGEPIADARRAMYIDAIRILGTNLSYDELKSGGSGSGSSGGSGTMAASDEVNLIESRTVVPLNTWVLISNFKVAYNILRRPDGTFNRHLAEYLDRKVTANANPVDGVFSFDVLIDRRINLLSRVYRPAYADQEQPPSILDLEKPVDGDIVPVILFFHGGSFAHSSANSAIYDTLCRRLVGLCKCVVVSVNYRRAPENPYPCAYDDGWIALNWVNSRSWLKSKKDSKVHIFLAGDSSGGNIAHNVALRAGESGIDVLGNILLNPMFGGNERTESEKSLDGKYFVTVRDRDWYWKAFLPEGEDREHPACNPFSPRGKSLEGVSFPKSLVVVAGLDLIRDWQLAYAEGLKKAGQEVKLMHLEKATVGFYLLPNNNHFHNVMDEISAFVNAECPKKKRKV
mCherry knockdown with gRNA and gibberellin (drug-induced) [2]: > 75%
mCherry knockdown with gRNA, without gibberellin (basal) [2]: 10 to 20%

B3: CD373 PV1-RfxCas13d-N559-NLS-BGHpA (protein)
chain: MIEKKKSFAKGMGVKSTLVSGSKVYMTTFAEGSDARLEKIVEGDSIRSVNEGEAFSAEMADKNAGYKIGNAKFSHPKGYAVVANNPLYTGPVQQDMLGLKETLEKRYFGESADGNDNICIQVIHNILDIEKILAEYITNAAYAVNNISGLDKDIIGFGKFSTVYTYDEFKDPEHHRAAFNNNDKLINAIKAQYDEFDNFLDNPRLGYFGQAFFSKEGRNYIINYGNECYDILALLSGLRHWVVHNNEEESRISRTWLYNLDKNLDNEYISTLNYLYDRITNELTNSFSKNSAANVNYIAETLGINPAEFAEQYFRFSIMKEQKNLGFNITKLREVMLDRKDMSEIRKNHKVFDSIRTKVYTMMDFVIYRYYIEEDAKVAAANKSLPDNEKSLSEKDIFVINLRGSFNDDQKDALYYDEANRIWRKLENIMHNIKEFRGNKTREYKKKDAPRLPRILPAGRDVSAFSKLMYALTMFLDGKEINDLLTTLINKFDNIQSFLKVMPLIGVNAKFVEEYAFFKDSAKIADELRLIKSFARMGEPIADARRAMYIDAIRILGTNLPKKKRKV
gRNA induced mCherry knockdown efficiency, no CID domain [3]: < 80%

Next, values leading:

Cre reporter expression (share of transfected cells), 25 uM caffeine for 5 hours (% of transfected cells) [4]: 30
Cre reporter turned on (share of transfected cells), caffeine at least 50 uM, induction at least 5 hours (% transfected cells) [4]: 38
Cre reporter turned on (share of transfected cells), caffeine induction, 48 hours (% transfected cells) [4]: > 80
B4: CD91 PV1-iCre-N270-L1-CaffVHH-NLS-BGHpA (protein)
chain: MSNLLTVHQNLPALPVDATSDEVRKNLMDMFRDRQAFSEHTWKMLLSVCRSWAAWCKLNNRKWFPAEPEDVRDYLLYLQARGLAVKTIQQHLGQLNMLHRRSGLPRPSDSNAVSLVMRRIRKENVDAGERAKQALAFERTDFDQVRSLMENSDRCQDIRNLAFLGIAYNTLLRIAEIARIRVKDISRTDGGRMLIHIGRTKTLVSTAGVEKALSLGVTKLVERWISVSGVADDPNNYLFCRVRKNGVAAPSATSQLSTRALEGIFEATHRSGGSGSGSSGGSGTMEVQLQASGGGLVQAGGSLRLSCTASGRTGTIYSMAWFRQAPGKEREFLATVGWSSGITYYMDSVKGRFTISRDNAKNSAYLQMNSLKPEDTAVYYCTATRAYSVGYDYWGQGTQVTVSHPKKKRKV

mCherry knockdown with gRNA and gibberellin (drug-induced) [5]: > 75%
mCherry knockdown with gRNA, without gibberellin (basal) [5]: 10 to 20%
B5: CD243 PV1-RfxCas13d-N559-L1-GID-NLS-BGHpA (protein)
chain: MIEKKKSFAKGMGVKSTLVSGSKVYMTTFAEGSDARLEKIVEGDSIRSVNEGEAFSAEMADKNAGYKIGNAKFSHPKGYAVVANNPLYTGPVQQDMLGLKETLEKRYFGESADGNDNICIQVIHNILDIEKILAEYITNAAYAVNNISGLDKDIIGFGKFSTVYTYDEFKDPEHHRAAFNNNDKLINAIKAQYDEFDNFLDNPRLGYFGQAFFSKEGRNYIINYGNECYDILALLSGLRHWVVHNNEEESRISRTWLYNLDKNLDNEYISTLNYLYDRITNELTNSFSKNSAANVNYIAETLGINPAEFAEQYFRFSIMKEQKNLGFNITKLREVMLDRKDMSEIRKNHKVFDSIRTKVYTMMDFVIYRYYIEEDAKVAAANKSLPDNEKSLSEKDIFVINLRGSFNDDQKDALYYDEANRIWRKLENIMHNIKEFRGNKTREYKKKDAPRLPRILPAGRDVSAFSKLMYALTMFLDGKEINDLLTTLINKFDNIQSFLKVMPLIGVNAKFVEEYAFFKDSAKIADELRLIKSFARMGEPIADARRAMYIDAIRILGTNLSGGSGSGSSGGSGTMAASDEVNLIESRTVVPLNTWVLISNFKVAYNILRRPDGTFNRHLAEYLDRKVTANANPVDGVFSFDVLIDRRINLLSRVYRPAYADQEQPPSILDLEKPVDGDIVPVILFFHGGSFAHSSANSAIYDTLCRRLVGLCKCVVVSVNYRRAPENPYPCAYDDGWIALNWVNSRSWLKSKKDSKVHIFLAGDSSGGNIAHNVALRAGESGIDVLGNILLNPMFGGNERTESEKSLDGKYFVTVRDRDWYWKAFLPEGEDREHPACNPFSPRGKSLEGVSFPKSLVVVAGLDLIRDWQLAYAEGLKKAGQEVKLMHLEKATVGFYLLPNNNHFHNVMDEISAFVNAECPKKKRKV
